The results in this text go back to PMC3088474 (Current biology : CB, 2011).

This test addresses T1, MBP-Rng2-1306-end (fission yeast, UniProt O14188 1306-1489).
T1 sequence (looked up): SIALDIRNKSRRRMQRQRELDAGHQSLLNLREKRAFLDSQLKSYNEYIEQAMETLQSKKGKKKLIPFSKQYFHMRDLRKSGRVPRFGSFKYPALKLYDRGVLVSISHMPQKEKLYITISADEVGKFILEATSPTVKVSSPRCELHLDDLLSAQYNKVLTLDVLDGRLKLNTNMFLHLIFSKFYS
In words: pull-down.

B1: GST-Mid1 1–100 (domain or fragment, fission yeast, UniProt P78953 1-100, looked up)
chain: MKEQEFSYREAKDVSLDSKGLENSFLSSPNREKTPLFFEGNSNETSGYDQTKNFTHGDGDMSLGNLSELNVATDLLESLDLRSMYMHGYGHLDSSFSSQH
Take B1: the binding result is recorded as “binds”.
